From patent US20250011456A1, “ANTIBODIES AGAINST CD14 AND USES THEREOF” (Villanelle Life Science Inc, priority 2023, published 2025)
Where “and” joins values, the source holds several entries; their conditions need not be identical. Equal entries are not always repeated.

Tested on: CD14 positive recurrent bladder cancer patient-derived xenograft (PDX)
Test: Amount of anti-CD14-IgG1 (5-40 mg/kg) for tumor treatment in PDX mice (tumor length, width, volume, tumor weight; Example 7)
Format: in vivo
Conditions: for Tumor Volume / Tumor Length / Tumor Width: per mouse 1-5; for Tumor weight after 28 days: individual mice 1-5
Text: After removing the primary tumor tissue from the patient, the tissue was temporarily placed in a complete culture medium containing RPMI1640 (Gibco Roswell Park Memorial Institute 1640 Media)+PS (penicillin and streptomycin)+10% FBS (Fetal bovine serum). The tissue was then transported to a sterile operating room within an SPF-grade (Specific Pathogen Free) animal facility. The tumor tissue was cut to an appropriate size (5 millimeters (mm) in diameter). Severely immunodeficient NSG (NOD scid gamma mouse) mice were anesthetized using an isoflurane respirator. The tumor was transplanted subcutaneously into the right rib area through surgery. When the tumor volume reached 1 cm^3, it was passaged following the same procedure, and after expanding for three generations, the tumor became stable for use in formal experiments. During the experiment, passaging and expansion were performed as needed. When the tumor volume reached 100 mm^3, the mice were divided into groups according to the experimental requirements and treated with drugs.
To evaluate concentrations for the anti-CD14-IgG1 antibody, PDX mice were treated with five different concentrations of the IgG1 antibody over a period of 28 days. For these experiments, drug administration on the PDX mice was performed intravenously on alternating 4 days and 3 days.
The five different concentrations of the anti-CD14-IgG1 antibody tested include 5 mg/kg, 10 mg/kg, 15 mg/kg, 25 mg/kg, and 40 mg/kg. A control regimen was utilized as a comparative example. […] The non-specific IgG1 has no binding affinity to antigen. […] Tumor weight and tumor volume were calculated as described above.

[1] = Day 4, IgG1 (10 mg/kg), 10 mg/kg
[2] = Day 11, IgG1 (5 mg/kg), 5 mg/kg
[3] = Day 14, IgG1 (5 mg/kg), 5 mg/kg
[4] = Day 18, IgG1 (5 mg/kg), 5 mg/kg
[5] = Day 21, IgG1 (5 mg/kg), 5 mg/kg
[6] = Day 25, IgG1 (5 mg/kg), 5 mg/kg
[7] = Day 28, IgG1 (5 mg/kg), 5 mg/kg

B1: D6DD3D001: mouse-derived anti-CD14 IgG1 antibody; VH SEQ ID NO: 1, VL SEQ ID NO: 3, heavy chain SEQ ID NO: 2, light chain SEQ ID NO: 4 (antibody)
heavy: DVQLQQSGPGLVKPSQSLSLTCTVTGYSITSDSAWNWIRQFPGNRLEWMGYISYSGSTSYNPSLKSRISITRDTSKNQFFLQLNSVTTEDTATYYCVRGLRFAYWGQGTLVTVSSPSVFLFPPKPKDTLMISRTPEVTCVVVDVSHEDPEVKFNWYVDGVEVHNAKTKPREEQYNSTYRVVSVLTVLHQDWLNGKEYKCKVSNKALPAPIEKTISKAKGQPREPQVYTLPPSREEMTKNQVSLTCLVKGFYPSDIAVEWESNGQPENNYKTTPPVLDSDGSFFLYSKLTVDKSRWQQGNVFSCSVMHEALHNHYTQKSLSLSPGK
light: DIVLTQSPASLAVSLGQRATISCRASESVDSYVNSFLHWYQQKPGQPPKLLIYRASNLQSGIPARFSGSGSRTDFTLTINPVEADDVATYYCQQSNEDPYTFGGGTKLEIKRTVAAPSVFIFPPSDEQLKSGTASVVCLLNNFYPREAKVQWKVDNALQSGNSQESVTEQDSKDSTYSLSSTLTLSKADYEKHKVYACEVTHQGLSSPVTKSFNRGEC
Day 0, IgG1 (5 mg/kg), 5 mg/kg
  Tumor Volume: 20.01 mm^3 and 19.41 mm^3 and 19.14 mm^3 and 19.44 mm^3 and 19.33 mm^3
Day 0, IgG1 (10 mg/kg), 10 mg/kg
  Tumor Volume: 59.69 mm^3 and 68.55 mm^3 and 77.15 mm^3 and 79.05 mm^3 and 79.08 mm^3
Day 4, IgG1 (5 mg/kg), 5 mg/kg
  Tumor Length: 5.58 mm and 6.11 mm and 6.53 mm and 5.89 mm and 6.64 mm
  Tumor Volume: 79.57 mm^3 and 87.80 mm^3 and 92.05 mm^3 and 94.26 mm^3 and 105.50 mm^3
  Tumor Width: 5.22 mm and 5.24 mm and 5.19 mm and 5.53 mm and 5.51 mm
[1]
  Tumor Length: 5.95 mm and 6.55 mm
  Tumor Volume: 81.63 mm^3 and 82.98 mm^3 and 85.32 mm^3 and 88.96 mm^3 and 108.37 mm^3
  Tumor Width: 5.12 mm
Day 4, IgG1 (15 mg/kg), 15 mg/kg
  Tumor Volume: 76.19 mm^3 and 77.75 mm^3 and 81.95 mm^3 and 87.59 mm^3 and 90.56 mm^3
Day 7, IgG1 (5 mg/kg), 5 mg/kg
  Tumor Length: 7.84 mm and 6.11 mm and 6.37 mm and 6.61 mm and 6.56 mm
  Tumor Volume: 103.81 mm^3 and 104.99 mm^3 and 109.45 mm^3 and 121.23 mm^3 and 132.82 mm^3
  Tumor Width: 5.03 mm and 5.73 mm (2×) and 5.92 mm and 6.22 mm
Day 7, IgG1 (10 mg/kg), 10 mg/kg
  Tumor Volume: 112.99 mm^3 and 113.39 mm^3 and 121.55 mm^3 and 122.33 mm^3 and 133.44 mm^3
Day 7, IgG1 (15 mg/kg), 15 mg/kg
  Tumor Volume: 99.31 mm^3 and 113.51 mm^3 and 118.44 mm^3 and 127.47 mm^3 and 152.88 mm^3
[2]
  Tumor Length: 6.48 mm and 6.63 mm and 6.74 mm and 6.44 mm and 7.52 mm
  Tumor Volume: 92.40 mm^3 and 103.06 mm^3 and 128.68 mm^3 and 130.81 mm^3 and 158.69 mm^3
  Tumor Width: 5.22 mm and 5.45 mm and 6.04 mm and 6.23 mm and 6.35 mm
Day 11, IgG1 (10 mg/kg), 10 mg/kg
  Tumor Volume: 100.68 mm^3 and 105.14 mm^3 and 112.60 mm^3 and 143.90 mm^3 and 170.28 mm^3
[3]
  Tumor Length: 7.14 mm and 6.88 mm and 7.56 mm and 7.02 mm and 8.46 mm
  Tumor Volume: 128.31 mm^3 and 135.30 mm^3 and 170.26 mm^3 and 171.88 mm^3 and 184.76 mm^3
  Tumor Width: 5.86 mm and 6.13 mm and 6.56 mm and 6.84 mm and 6.46 mm
Day 14, IgG1 (10 mg/kg), 10 mg/kg
  Tumor Volume: 109.71 mm^3 and 110.99 mm^3 and 134.85 mm^3 and 153.36 mm^3 and 165.63 mm^3
[4]
  Tumor Length: 7.91 mm and 7.24 mm and 8.45 mm and 8.16 mm and 8.08 mm
  Tumor Volume: 151.02 mm^3 and 169.58 mm^3 and 185.12 mm^3 and 218.31 mm^3 and 231.55 mm^3
  Tumor Width: 6.04 mm and 6.69 mm and 6.47 mm and 7.15 mm and 7.4 mm
Day 18, IgG1 (10 mg/kg), 10 mg/kg
  Tumor Volume: 132.18 mm^3 and 141.82 mm^3 and 163.82 mm^3 and 192.29 mm^3 and 204.50 mm^3
[5]
  Tumor Length: 8.92 mm and 8.5 mm and 8.53 mm and 8.19 mm and 8.49 mm
  Tumor Volume: 191.80 mm^3 and 234.46 mm^3 and 261.25 mm^3 and 271.57 mm^3 and 289.36 mm^3
  Tumor Width: 6.41 mm and 7.26 mm and 7.65 mm and 7.96 mm and 8.07 mm
Day 21, IgG1 (10 mg/kg), 10 mg/kg
  Tumor Volume: 218.53 mm^3 and 193.54 mm^3 and 221.69 mm^3 and 223.66 mm^3 and 268.23 mm^3
[6]
  Tumor Length: 8.73 mm and 9.67 mm and 9.91 mm and 9.97 mm and 9.69 mm
  Tumor Volume: 234.87 mm^3 and 334.49 mm^3 and 386.25 mm^3 and 465.95 mm^3 and 468.33 mm^3
  Tumor Width: 7.17 mm and 8.13 mm and 8.63 mm and 9.45 mm and 9.61 mm
Day 25, IgG1 (10 mg/kg), 10 mg/kg
  Tumor Volume: 227.79 mm^3 and 282.78 mm^3 and 300.56 mm^3 and 329.18 mm^3 and 336.90 mm^3
[7]
  Tumor Length: 9.76 mm and 9.79 mm and 10.39 mm and 11.02 mm and 10.87 mm
  Tumor Volume: 333.47 mm^3 and 459.47 mm^3 and 555.77 mm^3 and 603.55 mm^3 and 637.97 mm^3
  Tumor Width: 8.08 mm and 9.47 mm and 10.11 mm and 10.23 mm and 10.59 mm
Day 28, IgG1 (10 mg/kg), 10 mg/kg
  Tumor Volume: 231.00 mm^3 and 313.49 mm^3 and 338.93 mm^3 and 402.03 mm^3 and 419.55 mm^3
IgG1 5 mg/kg, 5 mg/kg
  Tumor weight after 28 days: 0.486 grams and 0.535 grams and 0.567 grams and 0.502 grams and 0.625 grams
IgG1 10 mg/kg, 10 mg/kg
  Tumor weight after 28 days: 0.341 grams and 0.302 grams and 0.267 grams and 0.285 grams and 0.386 grams
IgG1 15 mg/kg, 15 mg/kg
  Tumor weight after 28 days: 0.215 grams and 0.202 grams and 0.246 grams and 0.253 grams and 0.291 grams
IgG1 25 mg/kg, 25 mg/kg
  Tumor weight after 28 days: 0.158 grams and 0.184 grams and 0.191 grams and 0.204 grams and 0.211 grams
IgG1 40 mg/kg, 40 mg/kg
  Tumor weight after 28 days: 0.128 grams and 0.195 grams and 0.199 grams and 0.205 grams and 0.206 grams
anti-CD14-IgG1 5 mg/kg to 15 mg/kg, 28 days
  tumor inhibition level versus dosage: significantly increase with the dosage
anti-CD14-IgG1 15 mg/kg to 40 mg/kg, 28 days
  tumor inhibition rate versus dosage: tumor inhibition rate remaining the same across the three groups
